PMC5993198

Target: rBac-RelA (human? (hRelA; expressed in Sf9), UniProt Q04206 1-551)
Experiment: fluorescence anisotropy

Sequence of rBac-RelA (Q04206 whole entry): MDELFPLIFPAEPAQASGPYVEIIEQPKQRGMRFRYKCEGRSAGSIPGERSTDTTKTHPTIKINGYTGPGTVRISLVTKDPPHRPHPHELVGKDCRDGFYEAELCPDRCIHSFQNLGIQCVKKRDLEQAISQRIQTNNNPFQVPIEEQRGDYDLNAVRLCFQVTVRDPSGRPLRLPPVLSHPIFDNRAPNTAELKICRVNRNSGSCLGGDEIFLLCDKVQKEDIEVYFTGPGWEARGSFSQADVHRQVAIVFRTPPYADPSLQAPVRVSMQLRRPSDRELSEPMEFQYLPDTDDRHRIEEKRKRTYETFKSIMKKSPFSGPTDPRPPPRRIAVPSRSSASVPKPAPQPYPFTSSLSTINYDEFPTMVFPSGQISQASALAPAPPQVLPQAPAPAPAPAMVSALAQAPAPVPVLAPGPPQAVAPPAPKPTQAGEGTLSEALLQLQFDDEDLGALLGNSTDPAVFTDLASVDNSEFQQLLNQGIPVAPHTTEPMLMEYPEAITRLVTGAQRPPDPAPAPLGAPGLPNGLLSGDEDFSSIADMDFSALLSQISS

Q: Does ATCGTGGGAAAGTTTCTGGATATTCCCTTGGA (ssDNA) [fluorescein ssDNA negative control containing κB site] bind?
A: no binding
